Laboratory results reported in PMC11432317, “Disulfide Bond Engineering of Soluble ACE2 for Thermal Stability Enhancement” (International Journal of Molecular Sciences, 2024).

Biological target: T1, receptor binding domain (RBD) of the SARS-CoV-2 spike protein (residues 319-541) (SARS-CoV-2, UniProt P0DTC2 319-541)
T1 construct: also called spike RBD protein
Assay: SPR
Conditions: both partners purified

B1: I54C/K341C (M2) mutant sACE2-Fc (Fc fusion)
chain: QSTIEEQAKTFLDKFNHEAEDLFYQSSLASWNYNTNCTEENVQNMNNAGDKWSAFLKEQSTLAQMYPLQEIQNLTVKLQLQALQQNGSSVLSEDKSKRLNTILNTMSTIYSTGKVCNPDNPQECLLLEPGLNEIMANSLDYNERLWAWESWRSEVGKQLRPLYEEYVVLKNEMARANHYEDYGDYWRGDYEVNGVDGYDYSRGQLIEDVEHTFEEIKPLYEHLHAYVRAKLMNAYPSYISPIGCLPAHLLGDMWGRFWTNLYSLTVPFGQKPNIDVTDAMVDQAWDAQRIFKEAEKFFVSVGLPNMTQGFWENSMLTDPGNVQCAVCHPTAWDLGKGDFRILMCTKVTMDDFLTAHNEMGNIQYDMAYAAQPFLLRNGANEGFHEAVGEIMSLSAATPKHLKSIGLLSPDFQEDNETEINFLLKQALTIVGTLPFTYMLEKWRWMVFKGEIPKDQWMKKWWEMKREIVGVVEPVPHDETYCDPASLFHVSNDYSFIRYYTRTLYQFQFQEALCQAAKHEGPLHKCDISNSTEAGQKLFNMLRLGKSEPWTLALENVVGAKNMNVRPLLNYFEPLFTWLKDQNKNSFVGWSTDWSPYAD
notes: also called M2 sACE2-Fc
B1 was tested, and the Kd was 22.1 nM.
